{
  "source": "paper PMC11360484",
  "about": "(Toxins, 2024)",
  "binders": {"B1": {"name": "H11 IgG1 (synthetic human antibody against rEcarin) (antibody, V domains shown)", "VH": "not shown", "VL": "QSALTQPASVSGSPGQSITISCTGTSSDVGGYNYVSWYQQHPGKAPKLMIYEVSNRPSGVSNRFSGSKSGNTASLTISGLQAEDEADYYCSSYTSSSTLVVFGGGTKLTVL", "notes": "copies: 2 + 2"}},
  "biological_target": "T1, recombinant ecarin (rEcarin), SVMP PIII prothrombin activator from Echis pyramidum leakeyi (Echis pyramidum leakeyi (Kenya; entry …)",
  "T1 construct": "also called His10-tagged recombinant ecarin",
  "T1 sequence (heavy, as listed by the source)": "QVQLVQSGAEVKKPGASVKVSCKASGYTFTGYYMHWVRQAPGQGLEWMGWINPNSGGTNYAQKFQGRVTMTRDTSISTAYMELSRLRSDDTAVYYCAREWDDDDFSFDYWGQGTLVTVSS",
  "assay": "BLI; Octet HTX; […]; 30 C; PBS with 0.1% TWEEN 20 and 0.1% BSA; 180 s association, 180 s dissociation; 1:1 model, […]",
  "conditions": "both partners purified",
  "data": [
    {"binder": "B1", "values": [
      {"measurement": "Kd", "value": "87 ± 8", "unit": "nM"}
    ]}
  ]
}
